According to patent publication US20200216515A1 (CELLECTIS, published 2020):

Target: T1, CLL-1 (UniProt Q5QGZ9 65-265, limits assumed)
T1 sequence (looked up): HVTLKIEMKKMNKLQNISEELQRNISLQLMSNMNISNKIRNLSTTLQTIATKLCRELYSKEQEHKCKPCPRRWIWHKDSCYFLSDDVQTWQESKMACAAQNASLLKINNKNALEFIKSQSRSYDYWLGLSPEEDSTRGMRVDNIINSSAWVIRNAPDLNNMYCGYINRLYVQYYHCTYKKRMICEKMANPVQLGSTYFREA
Test: method not stated (Table 2, affinity of antibodies for CLL-1)

B1: M22 (antibody, V domains shown)
VH: QVQLQQPGAELVKPGASVKLSCKASGYTFTRYWMHWVKQRPGQGLEWIGNIDPSDTETHYNQQFKDKATLTVDKSSSTAYMQLSSLTSEDSAVYYCAIYYGNPSYYAMDYWGQGTSVTVSS
VL: DIVMTQSPSSLTVTAGEKVTMSCKSSQNLLNSGNQKKYLNWYQQKPGQPPKLLIYWASTRESGVPDRFTGSGSGTDFTLTISSVQAEDLAVYFCQNDYSYPFTFGAGTKLELK
Kd: 0.388 nM

B2: M29 (antibody, V domains shown)
VH: EVQLQQSGPELVKPGASVKMSCKASGYIFTSYVMYWVKQKPGQGLEWIGYINPYNDGTKYNEKFKGKATLTSDKSSSTAYMELSSLTSEDSAVYYCARYYDYDYYFDYWGQGTTLTVSS
VL: DIQMTQSPSSLSASLGGKVTITCKASQDINKYIAWYQHKPGKGPRLLIHYTSTLQPGIPSRFSGSGSGRDYSFSISNLEPEDIATYYCLQYDYLWTFGGGTKLEIK
Kd: 1.48 nM

B3: G12 (antibody, V domains shown)
VH: QVQLQQPGAELVKPGASMKMSCKASGYTFPSSNIHWLKQTPGQGLEWIGVIYPGNGDTSYNQKFKDKATLTTDKSSSTAYMQLSSLTSEDSAIYFCARVYNWHFDVWGAGTTVTVSS
VL: NIVLTQSPASLAVSLGQRATISCRASESVDGYGDIFMLWYQQKPGQPPKLLIYFASNLESGVPARFSGSGSRTDFTLTIDPVEADDAATYYCQQNNEDPYTFGGGTKLEIK
Kd: 0.07 nM

B4: M26 (antibody, V domains shown)
VH: EVQLQQSGPELVKPGASVKMSCKASGYTFTSYFIHWVKQKPGQGLEWIGFINPYNDGSKYNEKFKGKATLTSDKSSSTAYMELSSLTSEDSAVYYCTRDDGYYGYAMDYWGQGTLVTVSS
VL: DIQMTQSPSSLSASLGERVSLTCRATQELSGYLSWLQQKPDGTIKRLIYAASTLDSGVPKRFSGNRSGSDYSLTISSLESEDFADYYCLQYAIYPYTFGGGTKLEIK
Kd: 0.214 nM
